Data: patent publication US20030198990A1 (UNIVERSITY OF ROCHESTER, published 2003)

B1: Rb fragment (aa 371-928) ligated to the DBD of GAL4 (other)
chain: MKLLSSIEQACDICRLKKLKCSKEKPKCAKCLKNNWECRYSPKTKRSPLTRAHLTEVESRLERLEQLFLLIFPREDLDMILKMDSLQDIKALLTGLFVQDNVNKDAVTDRLASVETDMPLTLRQHRISATSSSEESSNKGQRQLTVSPHTPVRTVMNTIQQLMMILNSASDQPSENLISYFNNCTVNPKESILKRVKDIGYIFKEKFAKAVGQGCVEIGSQRYKLGVRLYYRVMESMLKSEEERLSIQNFSKLLNDNIFHMSLLACALEVVMATYSRSTSQNLDSGTDLSFPWILNVLNLKAFDFYKVIESFIKAEGNLTREMIKHLERCEHRIMESLAWLSDSPLFDLIKQSKDREGPTDHLESACPLNLPLQNNHTAADMYLSPVRSPKKKGSTTRVNSTANAETQATSAFQTQKPLKSTSLSLFYKKVYRLAYLRLNTLCERLLSEHPELEHIIWTLFQHTLQNEYELMRDRHLDQIMMCSMYGICKVKNIDLKFKIIVTAYKDLPHAVQETFKRVLIKEEEYDSIIVFYNSVFMQRLKTNILQYASTRPPTLSPIPHIPRSPYKFPSSPLRIPGGNIYISPLKSPYKISEGLPTPTKMTPRSRILVSIGESFGTSEKFQKINQMVCNSDRVLKRSAEGSNPPKPLKKLRFDIEGSDEADGSKHLPGESKFQQKLAEMTSTRTRMQKQKMNDSMDTSNKEEK

Key:
[1] = molecular target: T1, near full-length AR (nAR, aa 36-918) ligated to transcriptional activator VP16 (human, UniProt P10275 36-918); assay: cell-based or functional assay
T1 sequence: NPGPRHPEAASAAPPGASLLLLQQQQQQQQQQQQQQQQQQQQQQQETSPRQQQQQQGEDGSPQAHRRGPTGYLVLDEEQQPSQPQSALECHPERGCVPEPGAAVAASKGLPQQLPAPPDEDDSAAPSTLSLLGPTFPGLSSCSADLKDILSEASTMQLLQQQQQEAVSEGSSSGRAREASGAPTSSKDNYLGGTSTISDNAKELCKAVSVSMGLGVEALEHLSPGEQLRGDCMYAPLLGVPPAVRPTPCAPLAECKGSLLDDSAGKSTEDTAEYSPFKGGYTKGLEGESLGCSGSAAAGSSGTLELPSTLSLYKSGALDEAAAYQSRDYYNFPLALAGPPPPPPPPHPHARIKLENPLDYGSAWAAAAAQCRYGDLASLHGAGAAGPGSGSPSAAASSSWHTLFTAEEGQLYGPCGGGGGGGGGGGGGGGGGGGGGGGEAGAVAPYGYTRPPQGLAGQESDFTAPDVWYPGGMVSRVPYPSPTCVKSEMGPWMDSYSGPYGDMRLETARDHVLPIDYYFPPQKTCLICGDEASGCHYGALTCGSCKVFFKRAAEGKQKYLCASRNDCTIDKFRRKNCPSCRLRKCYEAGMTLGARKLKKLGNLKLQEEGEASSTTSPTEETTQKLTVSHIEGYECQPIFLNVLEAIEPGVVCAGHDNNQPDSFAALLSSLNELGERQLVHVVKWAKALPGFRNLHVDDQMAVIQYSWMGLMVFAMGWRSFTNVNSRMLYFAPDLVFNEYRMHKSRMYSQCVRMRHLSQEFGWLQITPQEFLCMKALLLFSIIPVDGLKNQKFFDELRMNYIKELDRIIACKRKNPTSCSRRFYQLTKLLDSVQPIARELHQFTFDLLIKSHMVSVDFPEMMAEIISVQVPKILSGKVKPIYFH

[2] = molecular target: T2, GAL0 empty vector (GAL4 DBD alone) (UniProt P04386 1-147); assay: mammalian two-hybrid, CAT reporter, DU145 cells
T2 construct: range 1-147; Control of the mammalian two-hybrid assay; also called pGAL0

[3] = molecular target: T3, human androgen receptor (AR), full length (human, UniProt P10275 1-920); assay: assay not given
T3 construct: mature; Full-length AR as used in the co-immunoprecipitations; The ARA54 co-IP used anti-His.tag antibodies; also called wtAR; wild type AR
T3 sequence (looked up): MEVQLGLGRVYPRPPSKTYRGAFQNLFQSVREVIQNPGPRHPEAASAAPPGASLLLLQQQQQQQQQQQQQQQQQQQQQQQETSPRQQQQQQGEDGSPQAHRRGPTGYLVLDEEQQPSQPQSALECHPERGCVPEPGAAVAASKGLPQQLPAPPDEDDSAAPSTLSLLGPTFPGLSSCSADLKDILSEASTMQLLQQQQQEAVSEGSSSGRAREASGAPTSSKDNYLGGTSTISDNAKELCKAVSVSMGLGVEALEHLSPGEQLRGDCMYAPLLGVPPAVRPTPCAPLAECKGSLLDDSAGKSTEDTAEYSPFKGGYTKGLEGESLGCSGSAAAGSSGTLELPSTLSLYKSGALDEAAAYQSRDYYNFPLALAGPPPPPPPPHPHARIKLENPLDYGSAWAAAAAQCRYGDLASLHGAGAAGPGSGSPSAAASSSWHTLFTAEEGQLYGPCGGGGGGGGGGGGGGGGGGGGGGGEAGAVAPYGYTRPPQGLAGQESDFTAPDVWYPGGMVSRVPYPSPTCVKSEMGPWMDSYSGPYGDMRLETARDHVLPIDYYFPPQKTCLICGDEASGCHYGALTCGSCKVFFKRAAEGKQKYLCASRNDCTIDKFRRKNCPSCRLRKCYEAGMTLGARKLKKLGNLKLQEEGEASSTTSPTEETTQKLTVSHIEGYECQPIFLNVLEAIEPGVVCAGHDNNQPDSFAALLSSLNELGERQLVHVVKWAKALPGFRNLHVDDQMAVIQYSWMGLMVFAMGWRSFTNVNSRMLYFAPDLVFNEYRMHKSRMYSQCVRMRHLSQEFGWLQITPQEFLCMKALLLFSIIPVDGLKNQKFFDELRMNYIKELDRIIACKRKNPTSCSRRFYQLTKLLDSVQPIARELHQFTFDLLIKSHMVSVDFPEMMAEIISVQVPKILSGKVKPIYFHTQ

[4] = molecular target: T1, near full-length AR (nAR, aa 36-918) …; assay: mammalian two-hybrid, CAT reporter, DU145 cells
[5] = molecular target: T4, GAL0AR: hormone binding domain of wtAR fused to the GAL4 DBD (human, UniProt P04386 1-147; P10275 625-920); assay: mammalian two-hybrid, CAT reporter, DU145 cells
T4 construct: range 1-147;domain: hinge and LBD; also called pGAL0-AR (wild-type); GAL4DBD fused to E region of human AR

[6] = molecular target: B1; assay: mammalian two-hybrid, CAT reporter, DU145 cells
[7] = molecular target: T3, human androgen receptor (AR), full …; assay: cell-based or functional assay

B1
CAT activity, mammalian two-hybrid system in DU145 cells [1]: 3 fold

B2: VP16-ARA55: full-length ARA55 fused to the activation domain of VP16 (other)
chain: MPRSGAPKERPAEPLTPPPSYGHQPTGQSGESSGASGDKDHLYSTVCKPRSPKPAAPAAPPFSSSSGVLGTGLCELDRLLQELNATQFNITDEIMSQFPSSKVASGEQKEDQSEDKKRPSLPSSPSPGLPKASATSATLELDRLMASLPDFRVQNHLPASGPTQPPVVSSTNEGSPSPPEPTAKGSLDTMLGLLQSDLSRRGVPTQAKGLCGSCNKPIAGQVVTALGRAWHPEHFVCGGCSTALGGSSFFEKDGAPFCPECYFERFSPRCGFCNQPIRHKMVTALGTHWHPEHFCCVSCGEPFGDEGFHEREGRPYCRRDFLQLFAPRCQGCQGPILDNYISALSLLWHPDCFVCRECFAPFSGGSFFEHEGRPLCENHFHARRGSLCPTCGLPVTGRCVSALGRRFHPDHFACTFCLRPLTKGSFQERAGKPYCQPCFLKLFG
notes: Mammalian two-hybrid construct, expressed in DU145 cells
binding result [2]: no binding

B3: C-terminal domain of ARA55 (amino acids 251-444) (other)
chain: EKDGAPFCPECYFERFSPRCGFCNQPIRHKMVTALGTHWHPEHFCCVSCGEPFGDEGFHEREGRPYCRRDFLQLFAPRCQGCQGPILDNYISALSLLWHPDCFVCRECFAPFSGGSFFEHEGRPLCENHFHARRGSLCPTCGLPVTGRCVSALGRRFHPDHFACTFCLRPLTKGSFQERAGKPYCQPCFLKLFG
notes: also called ARA55251-444; C-terminus of ARA55
binding result [3]: binds

B4: PR-LBD (receptor, UniProt P06401 679-933, looked up)
chain: QDIQLIPPLINLLMSIEPDVIYAGHDNTKPDTSSSLLTSLNQLGERQLLSVVKWSKSLPGFRNLHIDDQITLIQYSWMSLMVFGLGWRSYKHVSGQMLYFAPDLILNEQRMKESSFYSLCLTMWQIPQEFVKLQVSQEEFLCMKVLLLLNTIPLEGLRSQTQFEEMRSSYIRELIKAIGLRQKGVVSSSQRFYQLTKLLDNLHDLVKQLHLYCLNTFIQSRALSVEFPEMMSEVIAAQLPKILAGMVKPLLFHKK
notes: domain: LBD; Control in the mammalian two-hybrid assay; the construct is not described
binding result [4]: no binding

B5: VP16 vector (VP16 activation domain alone) (other)
chain: APPTDVSLGDELHLDGEDVAMAHADALDDFDLDMLGDGDSPGPGFTPHDSAPYGALDMADFEFEQMFTDALGIDEYGG
notes: Control of the mammalian two-hybrid assay; also called pCMX-VP16
binding result [5]: no binding

B6: ARA70 (other, UniProt Q13772 1-614, looked up)
chain: MNTFQDQSGSSSNREPLLRCSDARRDLELAIGGVLRAEQQIKDNLREVKAQIHSCISRHLECLRSREVWLYEQVDLIYQLKEETLQQQAQQLYSLLGQFNCLTHQLECTQNKDLANQVSVCLERLGSLTLKPEDSTVLLFEADTITLRQTITTFGSLKTIQIPEHLMAHASSANIGPFLEKRGCISMPEQKSASGIVAVPFSEWLLGSKPASGYQAPYIPSTDPQDWLTQKQTLENSQTSSRACNFFNNVGGNLKGLENWLLKSEKSSYQKCNSHSTTSSFSIEMEKVGDQELPDQDEMDLSDWLVTPQESHKLRKPENGSRETSEKFKLLFQSYNVNDWLVKTDSCTNCQGNQPKGVEIENLGNLKCLNDHLEAKKPLSTPSMVTEDWLVQNHQDPCKVEEVCRANEPCTSFAECVCDENCEKEALYKWLLKKEGKDKNGMPVEPKPEPEKHKDSLNMWLCPRKEVIEQTKAPKAMTPSRIADSFQVIKNSPLSEWLIRPPYKEGSPKEVPGTEDRAGKQKFKSPMNTSWCSFNTADWVLPGKKMGNLSQLSSGEDKWLLRKKAQEVLLNSPLQEEHNFPPDHYGLPAVCDLFACMQLKVDKEKWLYRTPLQM
notes: also called AR associated protein ARA70
binding result [6]: no binding | induced CAT activity in mammalian two-hybrid assay [7]: 12 fold

B7: AR-LBD (aa 590-918) ligated to transcriptional activator VP16 (receptor)
chain: GKQKYLCASRNDCTIDKFRRKNCPSCRLRKCYEAGMTLGARKLKKLGNLKLQEEGEASSTTSPTEETTQKLTVSHIEGYECQPIFLNVLEAIEPGVVCAGHDNNQPDSFAALLSSLNELGERQLVHVVKWAKALPGFRNLHVDDQMAVIQYSWMGLMVFAMGWRSFTNVNSRMLYFAPDLVFNEYRMHKSRMYSQCVRMRHLSQEFGWLQITPQEFLCMKALLLFSIIPVDGLKNQKFFDELRMNYIKELDRIIACKRKNPTSCSRRFYQLTKLLDSVQPIARELHQFTFDLLIKSHMVSVDFPEMMAEIISVQVPKILSGKVKPIYFH
notes: range 590-918; Mammalian two-hybrid construct, DU145 cells; also called pCMX-VP16-AR
binding result [6]: no binding
